Assay results taken from publication doi:10.64898/2025.12.15.690641.

B1: CAB24 CArG probe (dsDNA)
DNA 1: AATTCATCGATCGTTTACAAAAAAAAGAAATATCGATCGG
DNA 2: CCGATCGATATTTCTTTTTTTTGTAAACGATCGATGAATT
B2: CAB8 CArG probe (dsDNA)
DNA 1: AATTCATCGATCGTTTACTTTTTTTAGAAATATCGATCGG
DNA 2: CCGATCGATATTTCTAAAAAAAGTAAACGATCGATGAATT

Molecular target: T1, CsubMADS1 (Coccomyxa subellipsoidea C-169, UniProt I0YWG3 1-102)
T1 sequence: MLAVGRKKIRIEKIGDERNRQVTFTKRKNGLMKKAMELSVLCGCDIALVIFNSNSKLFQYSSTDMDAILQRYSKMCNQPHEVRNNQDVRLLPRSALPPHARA
Experiment: EMSA

Row | Binder | binding result
1 | B1 | binds
2 | B2 | binds
